According to patent publication US20230405133A1, “PURIFIED MULTIVALENT PROTEIN-HYALURONIC ACID POLYMER CONJUGATES” (Valitor, Inc., priority 2022, published 2023):

Legend:
Human VEGF 165 [1] = target: T1, Human VEGF 165 (human, UniProt P15692-4 27-191); assay: BLI, VEGF 165 on probe; sample aged 4 days at 37 °C
T1 construct: Loaded on the BLI probe as the ligand; also called BLI ligand Human VEGF 165 (Avi tag, R&D Systems AVI-293-050); not shown: Avi tag

Human VEGF 165 [2] = target: T1, Human VEGF 165; assay: BLI, VEGF 165 on probe; sample aged 14 days at 37 °C
Human VEGF 165 [3] = target: T1, Human VEGF 165; assay: BLI, VEGF 165 on probe, conjugate as analyte, t = 0; value is the limit of detection
Human VEGF 165 [4] = target: T1, Human VEGF 165; assay: BLI; KD after 14 days at 37 °C against KD at t = 0
Human VEGF 165 [5] = target: T1, Human VEGF 165; assay: BLI; KD after 4 days at 37 °C against KD at t = 0
Human VEGF 165 [6] = target: T1, Human VEGF 165; assay: BLI, VEGF 165 on probe, t = 0 (repeats Table 15); limit of detection
Human VEGF 165 [7] = target: T1, Human VEGF 165; assay: BLI, VEGF 165 on probe; sample aged 4 days at 37 °C; limit of detection
Human VEGF 165 [8] = target: T1, Human VEGF 165; assay: BLI, VEGF 165 on probe, conjugate as analyte, t = 0
Human VEGF 165 [9] = target: T1, Human VEGF 165; assay: BLI, VEGF 165 on probe, conjugate as analyte, t = 0; t = 0, fresh conjugate, not aged
Human VEGF 165 [10] = target: T1, Human VEGF 165; assay: BLI, VEGF binding affinity (KD, nM)
Human VEGF 165 [11] = target: T1, Human VEGF 165; assay: BLI, VEGF 165 on probe, conjugate as analyte

T1 sequence (P15692 other isoform, or with tags, fused parts or gaps limits assumed): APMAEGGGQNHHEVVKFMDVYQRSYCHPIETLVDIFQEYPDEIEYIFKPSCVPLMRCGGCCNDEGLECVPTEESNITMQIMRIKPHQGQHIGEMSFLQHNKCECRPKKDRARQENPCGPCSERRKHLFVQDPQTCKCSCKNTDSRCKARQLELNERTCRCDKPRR

B1: Conjugate 21 (anti-VEGF VHH SEQ ID NO: 91 with aH linker SEQ ID NO: 21 on hyaluronic acid, intermediate 1-9) (VHH)
VHH: DVQLVESGGGLVQPGGSLRLSCAASGRTFSSYSMGWFRQAPGKEREFVVAISKGGYKYDAVSLEGRFTISRDNAKNTVYLQINSLRPEDTAVYYCASSRAYGSSRLRLADTYEYWGQGTLVTVSS
modifications: C-terminal Cys of the peptide linker bound by its thiol to the maleimide of the organic linker MP2H on hyaluronic acid (830 kDa)
notes: Multivalent peptide-hyaluronic acid conjugate (MVP); peptide valency 51; Method 1 intermediate; also called BI VHH anti-VEGF MVP
Human VEGF 165 [1]
  Kd: 3.3 nM
Human VEGF 165 [2]
  Kd: 1.14 nM
Human VEGF 165 [3]
  Kd: < 0.001 nM
Human VEGF 165 [4]
  Change in KD to t = 0: 1140 fold
Human VEGF 165 [5]
  Change in KD to t = 0: 3300 fold
Human VEGF 165 [6]
  Kd: < 0.001 nM

B2: Conjugate 20 (anti-VEGF VHH SEQ ID NO: 91 on hyaluronic acid, intermediate 2-8) (VHH)
VHH: B1 VHH
modifications: peptide bound through the organic linker MP2H to hyaluronic acid (830 kDa); site of attachment not stated
notes: Multivalent peptide-hyaluronic acid conjugate (MVP); peptide valency 91; Method 2 intermediate; also called BI VHH anti-VEGF MVP
Human VEGF 165 [2]
  Kd: 1.44 nM
Human VEGF 165 [3]
  Kd: < 0.001 nM
Human VEGF 165 [4]
  Change in KD to t = 0: 1440 fold
Human VEGF 165 [5]
  Change in KD to t = 0: 1 fold
Human VEGF 165 [7]
  Kd: < 0.001 nM
Human VEGF 165 [6]
  Kd: < 0.001 nM

B3: Conjugate 19 (anti-VEGF VHH SEQ ID NO: 91 on hyaluronic acid, intermediate 2-6) (VHH)
VHH: B1 VHH
modifications: peptide bound through the organic linker MP2H to hyaluronic acid (830 kDa); site of attachment not stated
notes: Multivalent peptide-hyaluronic acid conjugate (MVP); peptide valency 108; Method 2 intermediate; also called BI VHH anti-VEGF MVP
Human VEGF 165 [1]
  Kd: 0.185 nM
Human VEGF 165 [3]
  Kd: < 0.001 nM
Human VEGF 165 [5]
  Change in KD to t = 0: 185 fold
Human VEGF 165 [6]
  Kd: < 0.001 nM

B4: Conjugate 13 (anti-VEGF VHH SEQ ID NO: 91 with Rigid linker SEQ ID NO: 31 on hyaluronic acid, intermediate 5-8) (VHH)
VHH: B1 VHH
modifications: C-terminal Cys of the peptide linker bound by its thiol to the maleimide of the organic linker MP2H on hyaluronic acid (830 kDa)
notes: Multivalent peptide-hyaluronic acid conjugate (MVP); peptide valency 72; Method 5 intermediate; also called BI VHH anti-VEGF MVP
Human VEGF 165 [8]
  Kd: 0.011 nM

B5: Conjugate 22 (anti-VEGF VHH SEQ ID NO: 91 with aH linker SEQ ID NO: 21 on hyaluronic acid, intermediate 1-10) (VHH)
VHH: B1 VHH
modifications: C-terminal Cys of the peptide linker bound by its thiol to the maleimide of the organic linker MP2H on hyaluronic acid (830 kDa)
notes: Multivalent peptide-hyaluronic acid conjugate (MVP); peptide valency 18; Method 1 intermediate; also called BI VHH anti-VEGF MVP
Human VEGF 165 [1]
  Kd: 5.87 nM
Human VEGF 165 [2]
  Kd: 0.142 nM
Human VEGF 165 [3]
  Kd: < 0.001 nM
Human VEGF 165 [4]
  Change in KD to t = 0: 142 fold
Human VEGF 165 [5]
  Change in KD to t = 0: 5870 fold
Human VEGF 165 [6]
  Kd: < 0.001 nM

B6: Conjugate 18 (anti-VEGF VHH SEQ ID NO: 91 on hyaluronic acid, intermediate 1-7) (VHH)
VHH: B1 VHH
modifications: peptide bound through the organic linker MP2H to hyaluronic acid (830 kDa); site of attachment not stated
notes: Multivalent peptide-hyaluronic acid conjugate (MVP); peptide valency 88; Method 1 intermediate; also called BI VHH anti-VEGF MVP
Human VEGF 165 [2]
  Kd: 3.67 nM
Human VEGF 165 [3]
  Kd: < 0.001 nM
Human VEGF 165 [4]
  Change in KD to t = 0: 3670 fold
Human VEGF 165 [5]
  Change in KD to t = 0: 1 fold
Human VEGF 165 [7]
  Kd: < 0.001 nM
Human VEGF 165 [6]
  Kd: < 0.001 nM

B7: Conjugate 14 (anti-VEGF VHH SEQ ID NO: 91 with Rigid linker SEQ ID NO: 31 on hyaluronic acid, intermediate 5-3) (VHH)
VHH: B1 VHH
modifications: C-terminal Cys of the peptide linker bound by its thiol to the maleimide of the organic linker MP2H on hyaluronic acid (830 kDa)
notes: Multivalent peptide-hyaluronic acid conjugate (MVP); peptide valency 68; Method 5 intermediate; also called BI VHH anti-VEGF MVP
Human VEGF 165 [9]
  Kd: 0.203 nM

B8: HuNb42_A88P_aH_CYS (unconjugated) (VHH)
VHH: QVQLVESGGGLVQPGGSLRLSCAASGFAYSTYSMGWFRQAPGKEREAVATINSGTFRLWYTDSVKGRFTISRDNSKNTLYLQMNSLRPEDTAVYYCAARAWSPYSSTVDAGDFRYWGQGTLVTVSS
notes: Free peptide, not conjugated to hyaluronic acid
Human VEGF 165 [10]
  binding result: binds

B9: Conjugate 28 (N42 anti-VEGF VHH, HuNb42 A88P aH_CYS, SEQ ID NO: 145, on hyaluronic acid, Method B intermediate) (VHH)
VHH: B8 VHH
modifications: C-terminal Cys bound by its thiol to the maleimide of the organic linker MP2H on hyaluronic acid (830 kDa)
notes: Multivalent peptide-hyaluronic acid conjugate; valency 129
Human VEGF 165 [11]
  Kd: 0.00107 nM

B10: 2H10_5MUT_aH_CYS (unconjugated) (VHH)
VHH: QVQLVESGGGLVQPGGSLRLSCLASGRRFSIEAMGWYRQAPGKQRELVAIIDSGGSTDYVDSAKGRFTISRDNSKNTVYLQMNSLRAEDTAVYYCNVIGSSWYGRGLDYWGQGTLVTVSS
notes: as for B8
Human VEGF 165 [10]
  binding result: binds

B11: 2H10_5MUT_aH_CYS MVP [140.3] (VHH)
VHH: B10 VHH
modifications: C-terminal Cys is the conjugation site
notes: Multivalent protein-hyaluronic acid conjugate
Human VEGF 165 [10]
  binding result: binds
